Test results from article PMC11883276.

Key:
[1] = molecular target: full-length human E-cadherin fused to GFP at the C-terminus, on A431-D cells (A431-D^E-cad) (human) (UniProt P12830)
[2] = molecular target: full-length wild-type human N-cadherin on A431-D cells (A431-D^N-cad; A431-D^N-cad+FGFR) (human) (UniProt P19022)
[3] = molecular target: full-length wild-type human N-cadherin on A431-D cells (A431-D^N-cad; A431-D^N-cad+FGFR) (human) (UniProt P19022); remark: listed apart in the source
[4] = molecular target: Fc-tagged extracellular domain of E-cadherin (E-cad-Fc) (UniProt P12830)
[5] = molecular target: Fc-tagged extracellular domain of N-cadherin (N-cad-Fc) (UniProt P19022)
[6] = molecular target: Fc-tagged extracellular domain of E-cadherin (E-cad-Fc) (UniProt P12830); remark: listed apart in the source
[7] = molecular target: Fc-tagged extracellular domain of N-cadherin (N-cad-Fc) (UniProt P19022); remark: listed apart in the source
[8] = molecular target: Fc-tagged extracellular domain of N-cadherin (N-cad-Fc) (UniProt P19022); assay: capillary shear flow cell adhesion assay; as a1, but with A431-D^N-cad+FGFR cells (N-cad co-expressed with FGFR1) on N-cad-Fc-coated capillaries
[9] = molecular target: Fc-tagged extracellular domain of E-cadherin (E-cad-Fc) (UniProt P12830); assay: density of cells attached to cadherin-coated substrates; A431-D^E-cad or A431-D^N-cad+FGFR cells counted 90 min after seeding in 0.5% serum with the fibronectin-blocking antibody 16G3 on E-cad-Fc or N-cad-Fc substrates; further samples treated with Gefitinib, BGJ398, DECMA-1 or anti-N-cad antibody
[10] = molecular target: Fc-tagged extracellular domain of N-cadherin (N-cad-Fc) (UniProt P19022); assay: as above
[11] = molecular target: Fc-tagged extracellular domain of N-cadherin (N-cad-Fc) (UniProt P19022); assay: capillary shear flow cell adhesion assay; cadherin-Fc (50 µg/ml) physisorbed on the inner walls of glass capillaries, blocked with BSA; A431-D^E-cad or A431-D^N-cad cells bound 20 min under static conditions, room temperature, low-serum medium with 2 mM Ca2+, then flow increased every 30 s; WSS50 from fits to Eqn 1
[12] = molecular target: endogenous human E-cadherin on MCF-7 cells (human) (UniProt P12830)
[13] = molecular target: Fc-tagged extracellular domain of E-cadherin (E-cad-Fc) (UniProt P12830); remark: listed apart in the source
[14] = molecular target: Fc-tagged extracellular domain of N-cadherin (N-cad-Fc) (UniProt P19022); remark: listed apart in the source

For “Fc-tagged extracellular domain of N-cadherin (N-cad-Fc) (from UniProt P19022 160-724) (Fc fusion)”, the relative change of cell stiffness during bead twisting (MTC), N-cad beads on A431-D^E-cad cells [1] was -3.6%, the relative change of cell stiffness during bead twisting (MTC), N-cad beads on A431-D^N-cad cells (no FGFR) [2] was 4% and the relative change of cell stiffness during bead twisting (MTC), N-cad beads on A431-D^N-cad+FGFR cells [3] was 17%.
With “full-length wild-type human N-cadherin on A431-D cells (A431-D^N-cad; A431-D^N-cad+FGFR) (from UniProt P19022 26-906) (receptor)” the RMS traction stress of A431-D^N-cad+FGFR cells on E-cad-Fc-coated 40 kPa gels, 0.5% serum [4] was 100 Pa, the RMS traction stress of A431-D^N-cad+FGFR cells on N-cad-Fc-coated 40 kPa gels, 0.5% serum [5] was 176 Pa and the RMS traction stress of A431D^N-cad cells (no FGFR) on E-cad-Fc-coated 40 kPa gels [6] was 88 Pa. For the same substance, the RMS traction stress of A431D^N-cad cells (no FGFR) on N-cad-Fc-coated 40 kPa gels [7] was 85 Pa, the WSS50 (wall shear stress at which 50% of the cells are retained) [8] was 17 dynes/cm^2 and the density of cells attached to the substrate [9] was 15 cells/mm². The density of cells attached to the substrate [10] was 22 cells/mm² and the WSS50 (wall shear stress at which 50% of the cells are retained) [11] was 15 dynes/cm^2.
“Fc-tagged extracellular domain of E-cadherin (E-cad-Fc) (from UniProt P12830 155-709) (Fc fusion)” gave a relative change of cell stiffness during bead twisting (MTC), E-cad beads on A431-D^E-cad cells [1] of 16%, a relative change of cell stiffness during bead twisting (MTC), E-cad beads on MCF-7 cells [12] of 17% and a relative change of cell stiffness during bead twisting (MTC), E-cad beads on A431-D^N-cad cells (no FGFR) [2] of -1%.
“full-length human E-cadherin fused to GFP at the C-terminus, on A431-D cells (A431-D^E-cad) (from UniProt P12830 23-882) (receptor)” gave an RMS traction stress of A431-D^E-cad cells on E-cad-Fc-coated 40 kPa gels, 0.5% serum [13] of 160 Pa, an RMS traction stress of A431-D^E-cad cells on N-cad-Fc-coated 40 kPa gels, 0.5% serum [14] of 82 Pa and a density of cells retained on the substrate [9] of 25 cells/mm^2. For the same substance, the density of cells retained on the substrate [10] was 19 cells/mm^2.
